Data as given in article PMC10500007.
pKd: −log10 of the molar value.

Columns and labels:
Assay in all cases: BLI; Octet RED96; His-tagged or Avi-tagged minibinder immobilised on Ni-NTA or streptavidin tips, dipped into titrations of integrin; association 900 s, dissociation 1200 s
[1] = target: av6_3 E13TM15RA39KG64R
[2] = target: av6_3 E13TG64R
[3] = target: av6_3 G64R
[4] = target: av6_3 M15R
[5] = target: av6_3 M15RG64R
[6] = target: av6_3 A39K
[7] = target: av6_3 E13TM15RA39K
av6_3 E13TM15RA39K, sequence (main, as listed by the source): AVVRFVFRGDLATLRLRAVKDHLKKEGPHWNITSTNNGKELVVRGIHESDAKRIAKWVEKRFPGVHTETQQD

av6_3 E13TM15RA39KG64R, sequence (main, as listed by the source): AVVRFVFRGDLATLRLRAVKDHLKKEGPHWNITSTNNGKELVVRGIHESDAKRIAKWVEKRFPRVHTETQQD
av6_3 E13TG64R, sequence (main, as listed by the source): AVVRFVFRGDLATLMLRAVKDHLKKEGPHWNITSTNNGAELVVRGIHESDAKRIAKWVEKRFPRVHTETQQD
av6_3 M15RG64R, sequence (main, as listed by the source): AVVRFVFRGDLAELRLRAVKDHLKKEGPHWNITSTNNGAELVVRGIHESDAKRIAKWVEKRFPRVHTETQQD
av6_3 M15R, sequence (main, as listed by the source M15R): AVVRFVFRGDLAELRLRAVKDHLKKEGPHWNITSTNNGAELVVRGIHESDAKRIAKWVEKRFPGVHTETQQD
av6_3 G64R, sequence (main, as listed by the source G64R): as the sequence (main, as listed by the source M15R) above, with R15M, G64R counted along it
av6_3 A39K, sequence (main, as listed by the source A39K): as the sequence (main, as listed by the source M15R) above, with R15M, A39K counted along it

pKd [1]: 9.10 | koff [1]: 8.31e-05 s⁻¹ | kon [1]: 104000 M⁻¹ s⁻¹ | pKd [2]: 9.10 | koff [2]: 8.87e-05 s⁻¹ | kon [2]: 112000 M⁻¹ s⁻¹ | pKd [3]: 9.02 | koff [3]: 0.000134 s⁻¹ | kon [3]: 141000 M⁻¹ s⁻¹ | pKd [4]: 9.42 | koff [4]: 6.65e-05 s⁻¹ | kon [4]: 175000 M⁻¹ s⁻¹ | pKd [5]: 9.13 | koff [5]: 7.71e-05 s⁻¹ | kon [5]: 104000 M⁻¹ s⁻¹ | pKd [6]: 9.19 | koff [6]: 8.16e-05 s⁻¹ | kon [6]: 127000 M⁻¹ s⁻¹ | pKd [7]: 8.97 | koff [7]: 9.1e-05 s⁻¹ | kon [7]: 84300 M⁻¹ s⁻¹
Substance: human integrin αvβ6 (soluble, BLI analyte) (from UniProt P06756 31-1048; P18564 22-709) (receptor)
